Test results taken from patent US20050118674A1, “Engineering of Controlled Deamidation Rates in Peptides, Proteins, and Similar Structures” (priority 2003, published 2005).
Where no end group is shown, it is not given here.

assay: First-order nonenzymatic deamidation of pentapeptides in Tris buffer; format: physicochemical; conditions: pH 7.4, 37.0° C., 0.15 M Tris HCl; Asn pentapeptides
Protocol: One of the discoveries made was that the sequence dependence of deamidation is much richer and covers a wider range than previously thought. In 37° C., pH 7.4, 0.15 M Tris buffer, the combination of XxxAsnYyy and XxxGlnYyy sequences where Xxx and Yyy are any of the naturally occuring amino acids covers a range from less than 1 day to over 15,000 days with the entire range in between available.
It is based on pentapeptide rates measure in 37° C., pH 7.4, 0.15 M Tris buffer. The applicability of a pentapeptide model to sequence dependence was verified in a separate set of experiments. All values listed in this table are experimental except for the four values in boxes, which were estimated from the rest of the data.
It is also based on pentapeptide rates measure in 37° C., pH 7.4, 0.15 M Tris buffer. In this case, the 52 values shown in bold were measured, and the rest of the values were derived from surface fitting.
Deamidation rates are affected by a wide variety of parameters, including, pH, Temperature, Ionic Strength, and Buffer Ions. These rates are measured under pH and Temperature conditions that are applicable to biological systems. The buffer type and concentration were chosen to minimize ion affects to the extent possible given the experimental limitations. Modification of these conditions will change the rates in Tables 1 and 2. As long as the conditions are not taken to extremes (i.e. high temperature, or strongly acidic or basic conditions) the qualitative sequence dependence should remain the same and the rates reported here can be used with necessary adjustments.

Point of comparison: “GlyLysAsnHisGly (GKNHG; printed: GlyLysAsnHisGly)”, “First-Order Deamidation Halftimes of GlyXxxAsnYyyGly” value 10.5 days. Against it:
- GlySerAsnAspGly (GSNDG; printed: GlySerAsnAspGly) — higher, 30.3 days
- GlyThrAsnPheGly (GTNFG; printed: GlyThrAsnPheGly) — higher, 76.4 days
- GlySerAsnAlaGly (GSNAG; printed: GlySerAsnAlaGly) — higher, 24.1 days
- GlyPheAsnCysGly (GFNCG; printed: GlyPheAsnCysGly) — higher, 46.5 days
- GlyGlyAsnMetGly (GGNMG; printed: GlyGlyAsnMetGly) — higher, 50.4 days
- GlyProAsnAspGly (GPNDG; printed: GlyProAsnAspGly) — higher, 48.6 days
- GlyTyrAsnCysGly (GYNCG; printed: GlyTyrAsnCysGly) — higher, 48.6 days
- GlyArgAsnProGly (GRNPG; printed: GlyArgAsnProGly) — higher, 5790 days
- GlyTrpAsnIleGly (GWNIG; printed: GlyTrpAsnIleGly) — higher, 286 days
- GlyProAsnPheGly (GPNFG; printed: GlyProAsnPheGly) — higher, 100 days
- GlyHisAsnAlaGly (GHNAG; printed: GlyHisAsnAlaGly) — higher, 24.6 days
- GlyValAsnSerGly (GVNSG; printed: GlyValAsnSerGly) — higher, 18.2 days
- GlyArgAsnAspGly (GRNDG; printed: GlyArgAsnAspGly) — higher, 34.7 days
- GlyAmCysAsnGlyGly (CNGG; not fully specified (N-terminus); printed as GlyAmCysAsnGlyGly) — lower, 1.14 days
- GlyTyrAsnHisGly (GYNHG; printed: GlyTyrAsnHisGly) — lower, 10.2 days
- GlyTrpAsnTrpGly (GWNWG; printed: GlyTrpAsnTrpGly) — higher, 135 days
- GlyGluAsnCysGly (GENCG; printed: GlyGluAsnCysGly) — higher, 44.2 days
- GlyLeuAsnAmCysGly — higher, 33.6 days
- GlyLeuAsnTrpGly (GLNWG; printed: GlyLeuAsnTrpGly) — higher, 74.5 days
- GlyValAsnMetGly (GVNMG; printed: GlyValAsnMetGly) — higher, 65.7 days
- GlyMetAsnThrGly (GMNTG; printed: GlyMetAsnThrGly) — higher, 43.6 days
- GlyMetAsnIleGly (GMNIG; printed: GlyMetAsnIleGly) — higher, 275 days
- GlyPheAsnIleGly (GFNIG; printed: GlyPheAsnIleGly) — higher, 287 days
- GlyCysAsnTrpGly (GCNWG; printed: GlyCysAsnTrpGly) — higher, 111 days
- GlyGluAsnThrGly (GENTG; printed: GlyGluAsnThrGly) — higher, 36.8 days
- GlyTrpAsnMetGly (GWNMG; printed: GlyTrpAsnMetGly) — higher, 64.2 days
- GlyIleAsnPheGly (GINFG; printed: GlyIleAsnPheGly) — higher, 61.5 days
- GlyTyrAsnProGly (GYNPG; printed: GlyTyrAsnProGly) — higher, 9830 days
- GlyIleAsnThrGly (GINTG; printed: GlyIleAsnThrGly) — higher, 46.3 days
- GlyTrpAsnTyrGly (GWNYG; printed: GlyTrpAsnTyrGly) — higher, 92.6 days
- GlyTyrAsnAlaGly (GYNAG; printed: GlyTyrAsnAlaGly) — higher, 24.3 days
- GlyIleAsnGluGly (GINEG; printed: GlyIleAsnGluGly) — higher, 58.6 days
- GlyHisAsnTyrGly (GHNYG; printed: GlyHisAsnTyrGly) — higher, 82.3 days
- GlyLeuAsnProGly (GLNPG; printed: GlyLeuAsnProGly) — higher, 10500 days
- GlyGluAsnGluGly (GENEG; printed: GlyGluAsnGluGly) — higher, 60.3 days
- GlyLysAsnAlaGly (GKNAG; printed: GlyLysAsnAlaGly) — higher, 23.6 days
- GlyProAsnAmCysGly — higher, 43.7 days
- GlyIleAsnAlaGly (GINAG; printed: GlyIleAsnAlaGly) — higher, 25.9 days

same assay, conditions: pH 7.4, 37.0 ° C., 0.15 M Tris HCl; Gln pentapeptides; 52 values measured, rest derived from surface fitting

Point of comparison: “GlyTrpGlnPheGly (GWQFG; printed: GlyTrpGlnPheGly)”, “First-Order Deamidation Halftimes of GlyXxxGlnYyyGly” value 8600 days. Against it:
- GlyMetGlnGluGly (GMQEG; printed: GlyMetGlnGluGly) — lower, 5800 days
- GlyTrpGlnIleGly (GWQIG; printed: GlyTrpGlnIleGly) — lower, 8000 days
- GlyPheGlnLeuGly (GFQLG; printed: GlyPheGlnLeuGly) — lower, 6400 days
- GlyThrGlnHisGly (GTQHG; printed: GlyThrGlnHisGly) — lower, 4500 days
- GlyGlyGlnLysGly (GGQKG; printed: GlyGlyGlnLysGly) — lower, 6000 days
- GlyProGlnTrpGly (GPQWG; printed: GlyProGlnTrpGly) — higher, 13000 days
- GlyGluGlnTrpGly (GEQWG; printed: GlyGluGlnTrpGly) — higher, 17000 days
- GlyIleGlnValGly (GIQVG; printed: GlyIleGlnValGly) — lower, 7100 days
- GlyTrpGlnValGly (GWQVG; printed: GlyTrpGlnValGly) — lower, 8200 days
- GlyTrpGlnMetGly (GWQMG; printed: GlyTrpGlnMetGly) — lower, 5300 days
- GlyAlaGlnTrpGly (GAQWG; printed: GlyAlaGlnTrpGly) — higher, 14000 days
- GlyValGlnPheGly (GVQFG; printed: GlyValGlnPheGly) — lower, 7200 days
- GlyCysGlnHisGly (GCQHG; printed: GlyCysGlnHisGly) — lower, 4200 days
- GlyHisGlnArgGly (GHQRG; printed: GlyHisGlnArgGly) — lower, 4500 days
- GlyPheGlnAlaGly (GFQAG; printed: GlyPheGlnAlaGly) — lower, 6300 days
- GlyArgGlnAlaGly (GRQAG; printed: GlyArgGlnAlaGly) — lower, 4400 days
- GlyAspGlnHisGly (GDQHG; printed: GlyAspGlnHisGly) — lower, 2500 days
- GlyAlaGlnLeuGly (GAQLG; printed: GlyAlaGlnLeuGly) — lower, 6100 days
- GlyCysGlnThrGly (GCQTG; printed: GlyCysGlnThrGly) — lower, 3500 days
- GlyThrGlnAspGly (GTQDG; printed: GlyThrGlnAspGly) — lower, 6300 days
- GlyCysGlnCysGly (GCQCG; printed: GlyCysGlnCysGly) — lower, 800 days
- GlyLysGlnLysGly (GKQKG; printed: GlyLysGlnLysGly) — lower, 4000 days
- GlyValGlnHisGly (GVQHG; printed: GlyValGlnHisGly) — lower, 5000 days
- GlyLeuGlnLeuGly (GLQLG; printed: GlyLeuGlnLeuGly) — lower, 6300 days
- GlyGluGlnValGly (GEQVG; printed: GlyGluGlnValGly) — lower, 6400 days
- GlyCysGlnMetGly (GCQMG; printed: GlyCysGlnMetGly) — lower, 3200 days
- GlyArgGlnGlyGly (GRQGG; printed: GlyArgGlnGlyGly) — lower, 660 days
- GlyAlaGlnHisGly (GAQHG; printed: GlyAlaGlnHisGly) — lower, 5500 days
- GlyAlaGlnArgGly (GAQRG; printed: GlyAlaGlnArgGly) — lower, 7200 days
- GlyProGlnPheGly (GPQFG; printed: GlyProGlnPheGly) — lower, 7300 days
- GlyAlaGlnGlyGly (GAQGG; printed: GlyAlaGlnGlyGly) — lower, 610 days
- GlyValGlnGlyGly (GVQGG; printed: GlyValGlnGlyGly) — lower, 640 days
- GlyArgGlnTrpGly (GRQWG; printed: GlyArgGlnTrpGly) — higher, 11000 days
- GlyCysGlnAspGly (GCQDG; printed: GlyCysGlnAspGly) — lower, 6100 days
